Reference: the supplement of paper PMC9170038

Columns and labels:
MS2 coat protein [1] = test: apparent KD of MS2 coat protein, switch ON state; designed switch direction (-1 OFF switch, 1 ON switch): 1; higher = weaker reporter binding; conditions: FMN input: 0 or 200 uM; Eterna round: R93 (includes R88 designs)
Outline: (§1)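 For every design, apparent KD is the median of normalised binding-curve fits from its clusters. The RNA switches were transcribed on-chip from Illumina sequencing clusters and titrated with SNAP-549-labelled MS2 coat protein (twofold steps, 0.7 or 1.5 nM to 3 µM; 0.8–1.5 h to 10–20 min per step). Titrations used 100 mM Tris-HCl pH 7.5, 80 mM KCl, 4 mM MgCl2, without or with constant ligand.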

MS2 coat protein [2] = test: apparent KD of MS2 coat protein, switch OFF state (with FMN for OFF switches, without FMN for ON switches); designed switch direction (-1 OFF switch, 1 ON switch): 1; higher = weaker reporter binding; conditions: FMN input: 0 or 200 uM; Eterna round: R93 (includes R88 designs)
Outline: as §1

Row | Sequence | apparent KD of MS2 coat protein (MS2 coat protein [1]) [nM] | apparent KD of MS2 coat protein (MS2 coat protein [2]) [nM]
1 | AGAAAACAUGAGGAUCACCCAUGUGACAAUAUGGGAGGAUAUACGAAGACGAAAGUCGAAGUAGAAGGCCUAAAGA [Garnet 50] | 23.4 | 66.7
2 | AGAAAACAUGAGGAUCACCCAUGUGAUAACAUGGGAGGAUAUACGAGGACGAUAGUCAAGGUAGAAGGCCUAAAGA [Garnet 71] | 97.3 | 32.1
3 | AGAAAUAAAAAUGAGGAUAUGCAAAAGAAAACAUGAGGAUCACCCAUGUAAAAGAAAAUAAAUGGGCAGAAGGCAUGAAAUAAAGA [Helter Skelter 3] | 33.8 | 75.1
4 | AGAAAUAAAACACAGGAUAUCCAAAAGAAAACAUGAGGAUCACCCAUGUAAAAUAAAAUAAAAUGGGAGAAGGGUGAAAAUAAGA [Mat - Same State 2 - JL mod - D5] | 150 | 50.2
5 | AGAAAUAAAAGGCAGGAUAUCCAAAAAAAAACAUGAGGAUCACCCAUGUAAAAAAAAAAAAAAUGGGAGAAGGGCCAAAUAAAGA [Mat - Same State 2 - Eli mod - D88] | 16 | 37.5
6 | AGAAGACAUGAGGAUCACCCAUGUGGGAAUAUGGGAGGAUAUACAAAGACGAGAGUCAGAGUAGAAGGCCUAGGAG [salish99-SS1-093] | 63.3 | 150
7 | AGGAAACAUGAGGAUCACCCAUGUAAAAAAUAUGGAGGAUAUACUAGAAGAAACAAAAUAGUAGAAGGCCAAAAAA [75%, Ex sub1, 31] | 15.2 | 19.4
8 | AGGAAACAUGAGGAUCACCCAUGUAAGAUAUACACAGGAUAUGCGAAAAGAAACAAAGAAGCAGAAGGGUGGAAAA [75%, Ex sub1, 11] | 16.5 | 31.6
9 | AGGAGACAUGAGGAUCACCCAUGUGAGAAGAGGCGAGGAUAUCGAAAGAAAGAAGAGAAACGAGAAGGCGCGAGGA [salish99-SS1-019] | 29.8 | 58.5
10 | AUAAAACAUGAGGAUCACCCAUGUAAAAAAGCAUGAGGAUAUAUAAAAAGAAAAAGAAGAAUAGAAGGCAUAGUAA [JR_SS001_Sub1222] | 71.4 | 52.1
11 | AUAAAACAUGAGGAUCACCCAUGUAGAAAUAUGGGAGGAUAUACAAAGACGAAAGUCGAGGUAGAAGGCCUAAAAG [Mat - Same State 1 - Meechl mod - D121] | 21.3 | 97.9
12 | AUAAAACAUGAGGAUCACCCAUGUAGAAAUAUGGGAGGAUAUACGAAGACGAAAGUCAAAGUAGAAGGCCUAAAAG [Mat - Same State 1 - Meechl mod - D115] | 26.5 | 83.6
13 | AUAAAAUAAAAGGAGGAUAUCCUAAAUAAAACAUGAGGAUCACCCAUGUAAAAAAUAAUAAAAUGGGAGAAGGCCUAAAAUAAAU [SS2 M 25] | 16.9 | 35
14 | AUAAAAUAAAUUGAGGAUAUCUAUAAUAAAACAUGAGGAUCACCCAUGUUUAAACAAAGAUCAUGGGAGAAGGCAGAAAAUAAAU [SS2 M 37] | 12.5 | 20.6
15 | AUAACAACGUAUGAGGAUAUCCAUAAUAAAACAUGAGGAUCACCCAUGUGAAUAAAAUAACAAUGGGAGAAGGCAUACGUACAAU [SS 2 M 51] | 12.1 | 16
16 | AUAAGACAUGAGGAUCACCCAUGUAUAAGAGCAUGAGGAUAUAUAAAAAGAAAAAGGAGAAUAGAAGGCAUAGUUG [JR_SS001_Sub1221] | 84.1 | 107
